The data set is described as follows: soluble fraction after stress (log2 fold change); higher = more stays soluble; pooled small domains, quantitative proteomics. As to conditions: stress: pH 4. Summed up:
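Aggregation propensity here comes from the fold change in the soluble amount of each small protein domain after acid stress, measured in pooled custom libraries by high-throughput quantitative proteomics. The acid stress was pH 4. On the log2 scale, higher values mean more of the domain stayed soluble.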

This is an account of results in the domain aggregation screens of Martell et al. (2025).

For the sequence “HMDYTPIEVKDLPQAIQDALTKNFSEYTVKSAAYQEDEDGVKIYQVTVVDEEGTEANIFFTEKGE”, the “soluble fraction (log2)” value was 0.00729.
Turning to “HMEADERRNEILDAAETLITEKGYSKTTIIDILNQVGIAKGTFYYYFKSKEEVMDAIIERFI”, the “soluble fraction (log2)” value is -1.33.
“HMEAEGLDFAPMPGEIGKKLWQEVSKEAWAGWLKHQTMLVNENRLSFVDPAARKYLTEQTEAYFFG”: the “soluble fraction (log2)” value is -0.248.
For “HMEAEMLYQVKVKITNLVIRSGAGAIYPIVKRYASGVLPIYEEKNGYGKIAVGQWISLSPEFVERVD”, the “soluble fraction (log2)” value was -0.0106.
With “HMEAEPRLLDLPPGTRAGRLDKVLAQLLPEHSRSRLQGWIERGGVLVNGKEASVRQVVGPGDQLTVWEEAA” the figure was 0.0341.
With “HMEAEQLEAIRSALQQLSDMNRTVFNLHVVDGYKHEEIAAMLNITTGTSKAHLHRAKKRLRELID”, the “soluble fraction (log2)” value was -0.745.
Regarding “HMEAEVIKTASDMADRNGLHNVSLKAIAENLGIRTPSLYNHIGSLDELLREIAHSGMRTMNE”, the “soluble fraction (log2)” value was -0.247.
For “HMEAFAEAVASMLRKLQPEFAIDLVGPRELLVNGRRLDLENLYRMVNHEPVRGQEIVEHYLDQLFAG”, the “soluble fraction (log2)” value was -0.665.
Consider “HMEAGLRMPEQLTAFSALALLQKVRDSGPLTDAQKEQLDADVLRIEASHFGKADREALELEEILKQWLSRV”, for which the “soluble fraction (log2)” value was -0.889.
As to “HMEAKSSTKALLDVVLGRNGVSTANVAKSLNISVQNASTRLKKLSSEGVIMRSEVSSPTGGIEFIYS”, the “soluble fraction (log2)” value is 0.22.
As to “HMEAKTSNPDYHARLGLTEGEGNDSALGVSVKAAEGGFGLLFGNKVGSDQLVRFANEDQVWLVNRALS”, the “soluble fraction (log2)” value was determined as 0.0693.
Turning to “HMEALNIEQKKVEIINVLLEKGKGKGRLSYKEISDQIDTVELDKDQMDELYETLMTNGIEIV”, the “soluble fraction (log2)” value is -1.43.
Regarding “HMEALPSNLRRLRLEAQLTLDRLGALSGVSRAMISKIERGASVPTATMLGKLAAALQVSLSQLL”, the “soluble fraction (log2)” value is -0.263.
As for “HMEAMITEVKRINYGLISDISKSLDPFKSEGGHIIVDKRTNTFILTDLRANIEKMLWSIEIMD”, the “soluble fraction (log2)” value was -0.248.
The same measure for “HMEAPNELLVPEGARPARADRVLAAAFPEHSRTALQRAFDAGLVRRANLVLSRDTAVAGGDRIAFSLPAV”: 0.0302; for “HMEARYQLREVSLDGLRSGMILNADVLSTDGVLMARKGLEVSGLLRSRLEAFAKMERIEPTFKVLVPIAPP”: 0.284.
Regarding “HMEASSTAIQAMIRRLIDDENPRKPLSDAKLADLLKSSGIPVARRTVAKYREAMNISASHERVRI”, the “soluble fraction (log2)” value is 0.17.
As to “HMEATEFYLEDLTGQMYNDVVNDEKYAGKIVFEKEEVQSDGEEAIGQILNQRPAGNMNVRIGTTVTLVVNA”, the “soluble fraction (log2)” value was -0.201.
In the case of “HMEATVGSRVRLARIGLTLTQKQLAQAVGVSANHLAMVERGSKHASEDLLQRIATATHTTYEWLMGTSEHQ”, the “soluble fraction (log2)” value was 0.174.
Consider “HMEAVIENAAIIKQNSGGYAVRATVNGVDLGMKPVERATALLYFSLTDKLEKDRLLSHTLQKTYGDLSA”, for which the “soluble fraction (log2)” value is -0.213.
For the sequence “HMEAYLPVTVVSDGKILTGNLEKAGKNEKWLENVLSELKTDVKNTLLLTVDPKDGLIFYPKG”, the “soluble fraction (log2)” value amounted to 0.0447.
Regarding “HMEAYMVPNVKNKTLNEAQQALSNQKLKGLVIDSSYVKGVPDGMVLDQNPAGGARVKEGRTIYLTVTTS”, the “soluble fraction (log2)” value amounted to 0.259.
The same measure for “HMEDADERRALEVLNQLLDLPEREQEAALAALSLPPALARRVRSLLSVQTRAADLFDTAPSP”: -0.6; for “HMEDAFLQRLISIIEANLSNVDFNVKMLAEQLNMSQPTLYRKVKQRSELSVIDMIRSIRILSLIHISEPTR”: -0.919.
In the case of “HMEDDRLIQNLLLTAKNLVMDVGRMDESALAENEDTVRTAMLFALGYLYENRSNPDYHKLTLNLRSILFA”, the “soluble fraction (log2)” value is -0.807.
On to “HMEDEISLGAINVPRGSVIVTAGGARLVEGSDYTVDYYSGTVKILNKSLLDAGTPINVSLET”, for which the “soluble fraction (log2)” value is -0.0859.
“HMEDETAKVLRLLAENNGYLPYNDKSDPTDIYAFFGMSKKAFKMTTGNLYKQKKIQFTQTGIQLIE”: the “soluble fraction (log2)” value was -0.16.
In the case of “HMEDEVSSSAAYQALLEKGVSKTLARSWVIDYGEAYVLDKVDLTTSQAARGKIKSSTAGFLKAAIEEDFHN”, the “soluble fraction (log2)” value is -0.765.
On to “HMEDGEALARAVASLPGKYREVLFLKYSHGYSVDEIALILSMSKENVKKTIQRARKKLEQLLESE”, for which the “soluble fraction (log2)” value is -0.507.
With “HMEDGEVTVPDLRGLTIKEAGTILEKLGLHLSPVGTGLAVRQDVAPGSKVARDTTITVEFEPPDIQVLR” the figure was -0.259; with “HMEDIKHVVANNIKKYRKEERLTLQQLSYLTGVSKTMLNQIETEKSSPSITILWRISSGLKIPLSKLISSP”, 0.143.
For the sequence “HMEDIPENIRYKFLLKELKENEHLNILDKENIARKLTEIDLPELEKELLENEILNSTIKDYLGIKLV”, the “soluble fraction (log2)” value was -0.912.
Consider “HMEDKFEYQGELKSLIEPTSFSELVSALNVRDTLQAIIDFAMREEDTSGYEELKVRQNDYIQEYLNSIGNF”, for which the “soluble fraction (log2)” value is -1.28.
In the case of “HMEDKFEYQGERKSLIYPTSFSELTEALGVRNMLQSIIDFATRDEDTSGYEEMKERQNEYIQEYL”, the “soluble fraction (log2)” value was determined as 0.0125.
As to “HMEDKKQVLYELITDKSYRPLRFKELAVLLMVPKALRGELKQTLDELIKEGKITVDSSSRYRAA”, the “soluble fraction (log2)” value came out at 0.276.
For the sequence “HMEDLDKIISAYLDENPQIVSDYGKGNKKAVNSAIGFVMKSTGGKYSSSDIVDAVRSMIVSISV”, the “soluble fraction (log2)” value was -0.254.
On to “HMEDNYYENKINYLFGYLDEADKEISVNSILDFHLAHRTNPEFVFEPKKNTNPLIWKYLSNSNLLY”, for which the “soluble fraction (log2)” value is 0.0187.
Regarding “HMEDPLGDLIGRIAAATGRPVQDIVAEVHRVVTDHFDGNLRVEAAAVILARKYGVAFEDKLSALQRSV”, the “soluble fraction (log2)” value was -0.559.
With “HMEDSAKRHQIMDGARRVFMDLGFDGASMNEIARAAGVSKGTLYVYFTDKNRLFEAIVEQESL”, the “soluble fraction (log2)” value was -1.15.
The same measure for “HMEDSEYDRLLAEIDEGIRKAIETLEPVELSPQNARVRRIQHQIIEKYQLHSDSVGEEPYRRVRIL”: -1.03.
“HMEDSHIYPVSFNGKMRFKLELPVSMNKKEIEEVVLQHEDAQKWLNGQNPKKVIVVPKRIINIV”: the “soluble fraction (log2)” value was found to be 0.308.
As for “HMEDTVNVPIQINGKLRHVIQVQIGTSEEEIQKIALSEEQVKKFTDGHEILKVMVPKGKLVSIVI”, the “soluble fraction (log2)” value is -0.126.
Take “HMEDVLVTQIIQLKHVDANDMKTLFTPLLSRGSSQLLAYPQSNVLIITDTRSNIKKITEILDIIDKS”: the “soluble fraction (log2)” value is -0.838.
With “HMEDVRSLTGPEKAAIILLSLGEEHGQGVWRMFDDEEVKEVSQIMANLGTISASVVEKLLVEFVSQMST” the figure was -1.5.
In the case of “HMEDYYKILGVQSNSNPDDIKKAYRKLSLKHHPDRGGDASEFKKINEAYQTLGTPEKRKMYDMQQNN”, the “soluble fraction (log2)” value was at least 0.43.
For the sequence “HMEEEPALLRDLLAKTLEFGLIPQLSHHPALADRTQQLASAVRAAGSASALRNAAASLKSLWIDVDQ”, the “soluble fraction (log2)” value was -0.617.
For “HMEEFDLNAYITKINSAATLNALKQAYAEANSAALSVKDKDAQRKIIVEKDKRKAELIQETAG”, the “soluble fraction (log2)” value stood at 0.313.
As to “HMEEIALTDILNRFLSSLSLEQRKIFMRRYWYLSPIKEIATEYGMSESKIKMSLFRSRNELKKLLEKEGI”, the “soluble fraction (log2)” value was -0.406.
With “HMEEINTAPVFKNIIEIAEYAKTKFTTVEEIPKMIEFIETANSKLDNPHDEESVNELINALSTNIRKNV”, the “soluble fraction (log2)” value was -0.554.
The same measure for “HMEEITLIAEDEGLRLDTWLTDKLKDYSRSYIQKLMEDELVLVNGKARKANYRIKTGDEIHVSIPEPE”: -0.507.
